Assay results taken from the Human Domainome abundance scans (Beltran et al. 2025).
± gives the uncertainty stated by the source.

B1: Receptor-interacting serine/threonine-protein kinase 2, residues 438 to 518; numbered along this chain, O43353 (parent)
chain: QWIQSKREDIVNQMTEACLNQSLDALLSRDLIMKEDYELVSTKPTRTSKVRQLLDTTDIQGEEFAKVIVQKLKDNKQMGLQ

Variants of: B1
Experiment: abundance fitness (aPCA) (normalised: wild type 0, dead -1); higher = more abundant; growth selection in yeast, the domain comes from the species named
Settings: Homo sapiens

Variant | abundance fitness
QWIQSKREDKVNQMTEACLNQSLDALLSRDLIMKEDYELVSTKPTRTSKVRQLLDTTDIQGEEFAKVIVQKLKDNKQMGLQ [I10K] | -0.619 ± 0.16
QWIQSKREDTVNQMTEACLNQSLDALLSRDLIMKEDYELVSTKPTRTSKVRQLLDTTDIQGEEFAKVIVQKLKDNKQMGLQ [I10T] | -0.697 ± 0.15
QWIQSKREDYVNQMTEACLNQSLDALLSRDLIMKEDYELVSTKPTRTSKVRQLLDTTDIQGEEFAKVIVQKLKDNKQMGLQ [I10Y] | -0.864 ± 0.28
QWIQSKREDQVNQMTEACLNQSLDALLSRDLIMKEDYELVSTKPTRTSKVRQLLDTTDIQGEEFAKVIVQKLKDNKQMGLQ [I10Q] | -0.541 ± 0.16
QWIQSKREDGVNQMTEACLNQSLDALLSRDLIMKEDYELVSTKPTRTSKVRQLLDTTDIQGEEFAKVIVQKLKDNKQMGLQ [I10G] | -0.764 ± 0.11
QWIQSKREDFVNQMTEACLNQSLDALLSRDLIMKEDYELVSTKPTRTSKVRQLLDTTDIQGEEFAKVIVQKLKDNKQMGLQ [I10F] | -0.877 ± 0.47
QWIQSKREDLVNQMTEACLNQSLDALLSRDLIMKEDYELVSTKPTRTSKVRQLLDTTDIQGEEFAKVIVQKLKDNKQMGLQ [I10L] | -0.264 ± 0.087
QWIQSKREDNVNQMTEACLNQSLDALLSRDLIMKEDYELVSTKPTRTSKVRQLLDTTDIQGEEFAKVIVQKLKDNKQMGLQ [I10N] | -0.476 ± 0.12
QWIQSKREDVVNQMTEACLNQSLDALLSRDLIMKEDYELVSTKPTRTSKVRQLLDTTDIQGEEFAKVIVQKLKDNKQMGLQ [I10V] | -0.628 ± 0.12
QWIQSKREDWVNQMTEACLNQSLDALLSRDLIMKEDYELVSTKPTRTSKVRQLLDTTDIQGEEFAKVIVQKLKDNKQMGLQ [I10W] | -0.968 ± 0.29
QWIQSKREDHVNQMTEACLNQSLDALLSRDLIMKEDYELVSTKPTRTSKVRQLLDTTDIQGEEFAKVIVQKLKDNKQMGLQ [I10H] | -0.862 ± 0.23
QWIQSKREDMVNQMTEACLNQSLDALLSRDLIMKEDYELVSTKPTRTSKVRQLLDTTDIQGEEFAKVIVQKLKDNKQMGLQ [I10M] | -0.421 ± 0.23
QWIQSKREDSVNQMTEACLNQSLDALLSRDLIMKEDYELVSTKPTRTSKVRQLLDTTDIQGEEFAKVIVQKLKDNKQMGLQ [I10S] | -0.618 ± 0.098
QWIQSKREDPVNQMTEACLNQSLDALLSRDLIMKEDYELVSTKPTRTSKVRQLLDTTDIQGEEFAKVIVQKLKDNKQMGLQ [I10P] | -0.622 ± 0.14
QWIQSKREDCVNQMTEACLNQSLDALLSRDLIMKEDYELVSTKPTRTSKVRQLLDTTDIQGEEFAKVIVQKLKDNKQMGLQ [I10C] | -0.712 ± 0.17
QWIQSKREDAVNQMTEACLNQSLDALLSRDLIMKEDYELVSTKPTRTSKVRQLLDTTDIQGEEFAKVIVQKLKDNKQMGLQ [I10A] | -1.04 ± 0.31
QWIQSKREDIRNQMTEACLNQSLDALLSRDLIMKEDYELVSTKPTRTSKVRQLLDTTDIQGEEFAKVIVQKLKDNKQMGLQ [V11R] | -0.534 ± 0.081
QWIQSKREDIENQMTEACLNQSLDALLSRDLIMKEDYELVSTKPTRTSKVRQLLDTTDIQGEEFAKVIVQKLKDNKQMGLQ [V11E] | -0.376 ± 0.11
QWIQSKREDIQNQMTEACLNQSLDALLSRDLIMKEDYELVSTKPTRTSKVRQLLDTTDIQGEEFAKVIVQKLKDNKQMGLQ [V11Q] | -0.776 ± 0.21
QWIQSKREDIMNQMTEACLNQSLDALLSRDLIMKEDYELVSTKPTRTSKVRQLLDTTDIQGEEFAKVIVQKLKDNKQMGLQ [V11M] | -0.099 ± 0.15
QWIQSKREDICNQMTEACLNQSLDALLSRDLIMKEDYELVSTKPTRTSKVRQLLDTTDIQGEEFAKVIVQKLKDNKQMGLQ [V11C] | -0.288 ± 0.09
QWIQSKREDIFNQMTEACLNQSLDALLSRDLIMKEDYELVSTKPTRTSKVRQLLDTTDIQGEEFAKVIVQKLKDNKQMGLQ [V11F] | -0.777 ± 0.46
QWIQSKREDIGNQMTEACLNQSLDALLSRDLIMKEDYELVSTKPTRTSKVRQLLDTTDIQGEEFAKVIVQKLKDNKQMGLQ [V11G] | -0.553 ± 0.063

Variant | abundance fitness
QWIQSKREDIINQMTEACLNQSLDALLSRDLIMKEDYELVSTKPTRTSKVRQLLDTTDIQGEEFAKVIVQKLKDNKQMGLQ [V11I] | 0.091 ± 0.12
QWIQSKREDIPNQMTEACLNQSLDALLSRDLIMKEDYELVSTKPTRTSKVRQLLDTTDIQGEEFAKVIVQKLKDNKQMGLQ [V11P] | -0.503 ± 0.087
QWIQSKREDIWNQMTEACLNQSLDALLSRDLIMKEDYELVSTKPTRTSKVRQLLDTTDIQGEEFAKVIVQKLKDNKQMGLQ [V11W] | -1.03 ± 0.21
QWIQSKREDIANQMTEACLNQSLDALLSRDLIMKEDYELVSTKPTRTSKVRQLLDTTDIQGEEFAKVIVQKLKDNKQMGLQ [V11A] | -0.49 ± 0.075
QWIQSKREDINNQMTEACLNQSLDALLSRDLIMKEDYELVSTKPTRTSKVRQLLDTTDIQGEEFAKVIVQKLKDNKQMGLQ [V11N] | -0.577 ± 0.27
QWIQSKREDILNQMTEACLNQSLDALLSRDLIMKEDYELVSTKPTRTSKVRQLLDTTDIQGEEFAKVIVQKLKDNKQMGLQ [V11L] | -0.373 ± 0.074
QWIQSKREDISNQMTEACLNQSLDALLSRDLIMKEDYELVSTKPTRTSKVRQLLDTTDIQGEEFAKVIVQKLKDNKQMGLQ [V11S] | -0.575 ± 0.071
QWIQSKREDIHNQMTEACLNQSLDALLSRDLIMKEDYELVSTKPTRTSKVRQLLDTTDIQGEEFAKVIVQKLKDNKQMGLQ [V11H] | -0.656 ± 0.29
QWIQSKREKIVNQMTEACLNQSLDALLSRDLIMKEDYELVSTKPTRTSKVRQLLDTTDIQGEEFAKVIVQKLKDNKQMGLQ [D9K] | -0.437 ± 0.15
QWIQSKRENIVNQMTEACLNQSLDALLSRDLIMKEDYELVSTKPTRTSKVRQLLDTTDIQGEEFAKVIVQKLKDNKQMGLQ [D9N] | -0.731 ± 0.27
QWIQSKREGIVNQMTEACLNQSLDALLSRDLIMKEDYELVSTKPTRTSKVRQLLDTTDIQGEEFAKVIVQKLKDNKQMGLQ [D9G] | -0.532 ± 0.092
QWIQSKRESIVNQMTEACLNQSLDALLSRDLIMKEDYELVSTKPTRTSKVRQLLDTTDIQGEEFAKVIVQKLKDNKQMGLQ [D9S] | -0.303 ± 0.07
QWIQSKREAIVNQMTEACLNQSLDALLSRDLIMKEDYELVSTKPTRTSKVRQLLDTTDIQGEEFAKVIVQKLKDNKQMGLQ [D9A] | -0.288 ± 0.095
QWIQSKREWIVNQMTEACLNQSLDALLSRDLIMKEDYELVSTKPTRTSKVRQLLDTTDIQGEEFAKVIVQKLKDNKQMGLQ [D9W] | -0.147 ± 0.088
QWIQSKREQIVNQMTEACLNQSLDALLSRDLIMKEDYELVSTKPTRTSKVRQLLDTTDIQGEEFAKVIVQKLKDNKQMGLQ [D9Q] | -0.151 ± 0.077
QWIQSKREIIVNQMTEACLNQSLDALLSRDLIMKEDYELVSTKPTRTSKVRQLLDTTDIQGEEFAKVIVQKLKDNKQMGLQ [D9I] | 0.255 ± 0.16
QWIQSKREVIVNQMTEACLNQSLDALLSRDLIMKEDYELVSTKPTRTSKVRQLLDTTDIQGEEFAKVIVQKLKDNKQMGLQ [D9V] | -0.172 ± 0.078
QWIQSKREHIVNQMTEACLNQSLDALLSRDLIMKEDYELVSTKPTRTSKVRQLLDTTDIQGEEFAKVIVQKLKDNKQMGLQ [D9H] | -0.336 ± 0.19
QWIQSKREYIVNQMTEACLNQSLDALLSRDLIMKEDYELVSTKPTRTSKVRQLLDTTDIQGEEFAKVIVQKLKDNKQMGLQ [D9Y] | -0.107 ± 0.15
QWIQSKREFIVNQMTEACLNQSLDALLSRDLIMKEDYELVSTKPTRTSKVRQLLDTTDIQGEEFAKVIVQKLKDNKQMGLQ [D9F] | -0.498 ± 0.28
QWIQSKREEIVNQMTEACLNQSLDALLSRDLIMKEDYELVSTKPTRTSKVRQLLDTTDIQGEEFAKVIVQKLKDNKQMGLQ [D9E] | -0.317 ± 0.15
QWIQSKRETIVNQMTEACLNQSLDALLSRDLIMKEDYELVSTKPTRTSKVRQLLDTTDIQGEEFAKVIVQKLKDNKQMGLQ [D9T] | -0.331 ± 0.098
QWIQSKREMIVNQMTEACLNQSLDALLSRDLIMKEDYELVSTKPTRTSKVRQLLDTTDIQGEEFAKVIVQKLKDNKQMGLQ [D9M] | -0.328 ± 0.19

Variant | abundance fitness
QWIQSKRECIVNQMTEACLNQSLDALLSRDLIMKEDYELVSTKPTRTSKVRQLLDTTDIQGEEFAKVIVQKLKDNKQMGLQ [D9C] | -0.341 ± 0.19
QWIQSKREPIVNQMTEACLNQSLDALLSRDLIMKEDYELVSTKPTRTSKVRQLLDTTDIQGEEFAKVIVQKLKDNKQMGLQ [D9P] | -0.898 ± 0.15
QWIQSKREDIVFQMTEACLNQSLDALLSRDLIMKEDYELVSTKPTRTSKVRQLLDTTDIQGEEFAKVIVQKLKDNKQMGLQ [N12F] | -0.62 ± 0.16
QWIQSKREDIVYQMTEACLNQSLDALLSRDLIMKEDYELVSTKPTRTSKVRQLLDTTDIQGEEFAKVIVQKLKDNKQMGLQ [N12Y] | -0.382 ± 0.4
QWIQSKREDIVWQMTEACLNQSLDALLSRDLIMKEDYELVSTKPTRTSKVRQLLDTTDIQGEEFAKVIVQKLKDNKQMGLQ [N12W] | -0.829 ± 0.19
QWIQSKREDIVEQMTEACLNQSLDALLSRDLIMKEDYELVSTKPTRTSKVRQLLDTTDIQGEEFAKVIVQKLKDNKQMGLQ [N12E] | 0.199 ± 0.21
QWIQSKREDIVHQMTEACLNQSLDALLSRDLIMKEDYELVSTKPTRTSKVRQLLDTTDIQGEEFAKVIVQKLKDNKQMGLQ [N12H] | -0.108 ± 0.11
QWIQSKREDIVKQMTEACLNQSLDALLSRDLIMKEDYELVSTKPTRTSKVRQLLDTTDIQGEEFAKVIVQKLKDNKQMGLQ [N12K] | -0.039 ± 0.15
QWIQSKREDIVMQMTEACLNQSLDALLSRDLIMKEDYELVSTKPTRTSKVRQLLDTTDIQGEEFAKVIVQKLKDNKQMGLQ [N12M] | -0.002 ± 0.19
QWIQSKREDIVSQMTEACLNQSLDALLSRDLIMKEDYELVSTKPTRTSKVRQLLDTTDIQGEEFAKVIVQKLKDNKQMGLQ [N12S] | -0.213 ± 0.071
QWIQSKREDIVGQMTEACLNQSLDALLSRDLIMKEDYELVSTKPTRTSKVRQLLDTTDIQGEEFAKVIVQKLKDNKQMGLQ [N12G] | -0.162 ± 0.065
QWIQSKREDIVQQMTEACLNQSLDALLSRDLIMKEDYELVSTKPTRTSKVRQLLDTTDIQGEEFAKVIVQKLKDNKQMGLQ [N12Q] | -0.248 ± 0.23
QWIQSKREDIVAQMTEACLNQSLDALLSRDLIMKEDYELVSTKPTRTSKVRQLLDTTDIQGEEFAKVIVQKLKDNKQMGLQ [N12A] | 0.073 ± 0.093
QWIQSKREDIVCQMTEACLNQSLDALLSRDLIMKEDYELVSTKPTRTSKVRQLLDTTDIQGEEFAKVIVQKLKDNKQMGLQ [N12C] | -0.028 ± 0.1
QWIQSKREDIVPQMTEACLNQSLDALLSRDLIMKEDYELVSTKPTRTSKVRQLLDTTDIQGEEFAKVIVQKLKDNKQMGLQ [N12P] | -0.978 ± 0.23
QWIQSKREDIVVQMTEACLNQSLDALLSRDLIMKEDYELVSTKPTRTSKVRQLLDTTDIQGEEFAKVIVQKLKDNKQMGLQ [N12V] | -0.374 ± 0.086
QWIQSKREDIVRQMTEACLNQSLDALLSRDLIMKEDYELVSTKPTRTSKVRQLLDTTDIQGEEFAKVIVQKLKDNKQMGLQ [N12R] | -0.008 ± 0.059
QWIQSKREDIVDQMTEACLNQSLDALLSRDLIMKEDYELVSTKPTRTSKVRQLLDTTDIQGEEFAKVIVQKLKDNKQMGLQ [N12D] | -0.089 ± 0.14
QWIQSKREDIVIQMTEACLNQSLDALLSRDLIMKEDYELVSTKPTRTSKVRQLLDTTDIQGEEFAKVIVQKLKDNKQMGLQ [N12I] | -0.486 ± 0.21
QWIQSKREDIVLQMTEACLNQSLDALLSRDLIMKEDYELVSTKPTRTSKVRQLLDTTDIQGEEFAKVIVQKLKDNKQMGLQ [N12L] | -0.068 ± 0.059
QWIQSKRVDIVNQMTEACLNQSLDALLSRDLIMKEDYELVSTKPTRTSKVRQLLDTTDIQGEEFAKVIVQKLKDNKQMGLQ [E8V] | -0.301 ± 0.072
QWIQSKRWDIVNQMTEACLNQSLDALLSRDLIMKEDYELVSTKPTRTSKVRQLLDTTDIQGEEFAKVIVQKLKDNKQMGLQ [E8W] | -0.918 ± 0.12
